According to paper PMC7398163:

Molecular target: FLAG-YAP tagged with a nuclear exclusion sequence (NES) (human) (UniProt P46937)
Assay: co-IP

fold association relative to WT YAP: 2 fold
Substance: IQGAP1 (from UniProt Q9JKF1 1-1657) (natural protein)
